# Results taken from patent publication US10870693B2, “Therapeutic combination and methods of treatment with a DLL4 antagonist and an anti-hypertensive agent” (OncoMed Pharmaceuticals, Inc., priority 2009, dated 2020).
# Where a name gives a salt, the structure may show the parent alone.
# B1: OMP-21M18: humanized anti-DLL4 antibody encoded by the plasmid with ATCC deposit number PTA-8425 (antibody, V domains shown)
# VH: QVQLVQSGAEVKKPGASVKISCKASGYSFTAYYIHWVKQAPGQGLEWIGYISSYNGATNYNQKFKGRVTFTTDTSTSTAYMELRSLRSDDTAVYYCARDYDYDVGMDYWGQGTLVTVSS
# VL: DIVMTQSPDSLAVSLGERATISCRASESVDNYGISFMKWFQQKPGQPPKLLIYAASNQGSGVPDRFSGSGSGTDFTLTISSLQAEDVAVYYCQQSKEVPWTFGGGTKVEIK
# modifications: Heavy chain variable region, H7; Light chain variable region
# What was measured:
# [1] = Phase 1 study of OMP-21M18: blood pressure readings and anti-hypertensive treatment of individual subjects
# Experimental: For study days in which an infusion of OMP-21M18 was administered, blood pressure readings include a reading pre-infusion, 15 minutes after the start of infusion, at the end of infusion, and 15 minutes post-infusion.
# OMP-21M18 was administered at dosages of 0.5 mg/kg weekly to three subjects, 1.0 mg/kg weekly to three subjects, 2.5 mg/kg every two weeks to six subjects, 2.5 mg/kg weekly to six subjects, 5.0 mg/kg every two weeks to six subjects, 5.0 mg/kg weekly to three subjects, and 10.0 mg/kg every two weeks to six subjects. According to the study protocol, the administration period was nine weeks, unless a subject was removed from the study due to a dose limiting toxicity. Baseline blood pressure readings were taken just prior to administration of the first dosage. Toxicities were assessed using the National Institute of Health's Common Toxicity Criteria for Adverse Events (CTCAE) version 3.0. During the study, subjects were assessed for dose limiting toxicities from the time of the first dose through 7 days after administration of the fourth dose (Days 0-28).
# [2] = Phase 1 dose escalation study of OMP-21M18 in subjects with solid tumors: incidence of hypertension (CTCAE v3.0); assay type: in vivo; settings: for Grade 3 Hypertension / Grade 4 Hypertension: number of patients
# Experimental: Thirty-three subjects with advanced solid tumors initiated treatment with OMP-21M18 in a Phase I clinical trial. The trial was designed to determine the maximum tolerated dose (MTD), safety, pharmacokinetics, immunogenicity, and preliminary efficacy of OMP-21M18 in subjects with advanced solid tumors. All subjects had histologically confirmed malignancies that were metastatic or unresectable and had received extensive treatment for their cancer.
# OMP-21M18 was prepared for use at a concentration of 10 mg/mL in a solution of 50 mM histidine, 100 mM sodium chloride, 45 mM sucrose, and 0.01% (w/v) Polysorbate 20, with the pH adjusted to 6.0. Once prepared, OMP-21M18 was stored as 20 mL aliquots in 25-cc vials.
# [3] = Subject 1 on OMP-21M18 0.5 mg/kg weekly, Lotensin, Norvasc and hydrochlorothiazide together
# [4] = Subject 2 on OMP-21M18 1 mg/kg, labetalol 400 bid, lasix 20 mg qd, Norvasc 10 mg qd, Prinzide 20/25 mg together, 7 additional OMP-21M18 doses without hypertension
# [5] = 2.5 mg/kg every 2 weeks, 6 patients
# [6] = 5.0 mg/kg every 2 weeks, 6 patients
# [7] = 10.0 mg/kg every 2 weeks, 6 patients, one patient had both Grade 3 and Grade 4
molecule,measurement,setting,value
"CCOC(=O)[C@H](CCc1ccccc1)N[C@H]1CCc2ccccc2N(CC(=O)O)C1=O [Lotensin®, benazepril hydrochloride, reference compound]",blood pressure control by anti-hypertensive regimen,[1]; [3],adequate blood pressure control
"CCOC(=O)C1=C(COCCN)NC(C)=C(C(=O)OC)C1c1ccccc1Cl (centres unmarked) [Norvasc®, amlodipine besylate, reference compound]",blood pressure control by anti-hypertensive regimen,[1]; [3],adequate blood pressure control
same,blood pressure control by anti-hypertensive regimen,[1]; [4],controlled their blood pressure
same,adverse event leading to discontinuation of anti-hypertensive,"[1]; Subject 3 on OMP-21M18 2.5 mg/kg, Norvasc 5 mg qd, discontinued Day 141",ankle edema
"NS(=O)(=O)c1cc2c(cc1Cl)NCNS2(=O)=O [hydrochlorothiazide, reference compound]",blood pressure control by anti-hypertensive regimen,[1]; [3],adequate blood pressure control
"CC(CCc1ccccc1)NCC(O)c1ccc(O)c(C(N)=O)c1 (centres unmarked) [labetalol, reference compound]",blood pressure control by anti-hypertensive regimen,[1]; [4],controlled their blood pressure
"NS(=O)(=O)c1cc(C(=O)O)c(NCc2ccco2)cc1Cl [lasix, reference compound]",blood pressure control by anti-hypertensive regimen,[1]; [4],controlled their blood pressure
B1,Total Incidence of Hypertension,"[2]; 0.5 mg/kg weekly, 3 patients",1/3
same,Grade 3 Hypertension,"[2]; 0.5 mg/kg weekly, 3 patients",1
same,Grade 4 Hypertension,"[2]; 0.5 mg/kg weekly, 3 patients",0
same,Total Incidence of Hypertension,"[2]; 1.0 mg/kg weekly, 3 patients",1/3
same,Grade 3 Hypertension,"[2]; 1.0 mg/kg weekly, 3 patients",1
same,Grade 4 Hypertension,"[2]; 1.0 mg/kg weekly, 3 patients",0
same,Total Incidence of Hypertension,[2]; [5],1/6
same,Grade 3 Hypertension,[2]; [5],1
same,Grade 4 Hypertension,[2]; [5],0
same,Total Incidence of Hypertension,"[2]; 2.5 mg/kg weekly, 6 patients",2/6
same,Grade 3 Hypertension,"[2]; 2.5 mg/kg weekly, 6 patients",2
same,Grade 4 Hypertension,"[2]; 2.5 mg/kg weekly, 6 patients",0
same,Total Incidence of Hypertension,[2]; [6],1/3
same,Grade 3 Hypertension,[2]; [6],1
same,Grade 4 Hypertension,[2]; [6],0
same,Total Incidence of Hypertension,"[2]; 5.0 mg/kg weekly, 3 patients",0/3
same,Grade 3 Hypertension,"[2]; 5.0 mg/kg weekly, 3 patients",0
same,Grade 4 Hypertension,"[2]; 5.0 mg/kg weekly, 3 patients",0
same,subjects who experienced Grade 3 or Grade 4 hypertension,[2]; 10.0 mg/kg dose level,6 of 6
same,Total Incidence of Hypertension,"[2]; 10.0 mg/kg every 2 weeks, 6 patients",6/6
same,Grade 3 Hypertension,[2]; [7],6
same,Grade 4 Hypertension,[2]; [7],1
same,subjects whose hypertension was labeled grade three,"[2]; of the twelve subjects with hypertension, asymptomatic, controlled with oral anti-hypertensive, treatment continued",eleven
same,subjects for whom hypertension was reported during the course of therapy,"[2]; of thirty-three subjects, all dose cohorts",twelve
same,patients with hypertension reported,"[2]; thirty-three subjects, all dose cohorts",36%
same,"blood pressure, highest reported","[1]; Subject 1, 0.5 mg/kg weekly, Day 21, 15 minutes post infusion, baseline 135/73, on Lotensin 30 mg qd",199/92
same,blood pressure,"[1]; Subject 1, 0.5 mg/kg weekly, Day 24, baseline 135/73, on Lotensin 30 mg qd",183/89
same,blood pressure,"[1]; Subject 1, 0.5 mg/kg weekly, Day 32, on Lotensin 40 mg qd and Norvasc 5 mg qd",177/88
same,blood pressure,"[1]; Subject 1, 0.5 mg/kg weekly, Day 41, on Lotensin 40 mg qd and Norvasc 10 mg qd",160/85
same,blood pressure,"[1]; Subject 2, 1 mg/kg weekly, Day 7 (high), baseline 141/85, on lisinopril 10 mg qd",177/93
same,blood pressure,"[1]; Subject 2, 1 mg/kg weekly, Day 14, on lisinopril plus irbesartan/hydrochlorothiazide, study drug dose not administered",173/110
same,blood pressure,"[1]; Subject 2, 1 mg/kg weekly, Day 21, on labetalol 100 mg bid and Prinzide 10/12.5 qd",164/112
same,blood pressure,"[1]; Subject 2, 1 mg/kg weekly, Day 55, on labetalol 400 mg bid and Prinzide 10/12.5 qd",163/91
same,blood pressure,"[1]; Subject 2, 1 mg/kg, Day 84, on labetalol 400 mg bid and Prinzide 20/25 qd, OMP-21M18 dose not administered",167/102
same,blood pressure,"[1]; Subject 3, 2.5 mg/kg weekly, Day 21, baseline 96/54, no prior history of hypertension",159/90
same,blood pressure,"[1]; Subject 3, 2.5 mg/kg, Day 112, on Dyazide 1 po qd",152/77
same,blood pressure,"[1]; Subject 3, 2.5 mg/kg, Day 146, on lisinopril 20 mg bid",143/85
same,blood pressure,"[1]; Subject 4, 2.5 mg/kg cohort, Day 14, baseline 118/73, on dyazide and lisinopril, increase not related to study drug according to the Investigator",153/79
same,blood pressure,"[1]; Subject 5, 10 mg/kg once every other week, Day 9, baseline 130/90",160/90
same,blood pressure,"[1]; Subject 5, 10 mg/kg once every other week, Day 26, at home, on lisinopril 5 mg qd",170/90
same,blood pressure,"[1]; Subject 5, 10 mg/kg once every other week, Day 62, on lisinopril 10 mg bid",190/120
same,blood pressure,"[1]; Subject 5, 10 mg/kg once every other week, Day 65, on lozartan 25 mg, bisoprolol 2.5 mg, amlodipine 5 mg qd",170/106
same,blood pressure,"[1]; Subject 6, 10 mg/kg cohort, Day 28, single reading, on enalapril",150/90
same,blood pressure,"[1]; Subject 6, 10 mg/kg cohort, subsequent reading after Day 28, on enalapril",150/90
same,blood pressure,"[1]; Subject 6, 10 mg/kg cohort, subsequent to start of enalapril 10 mg bid on Day 9, baseline 125/90",140/90
same,blood pressure,"[1]; Subject 7, 10 mg/kg once every other week, Day 9, baseline 135/90, on enalapril 5 mg bid",170/90
same,blood pressure,"[1]; Subject 7, 10 mg/kg once every other week, Day 56, on enalapril 10 mg bid",155/90
same,blood pressure,"[1]; Subject 8, 10 mg/kg once every other week, Day 17, home reading, baseline 140/90, captopril 25 mg as needed",160/90
same,blood pressure,"[1]; Subject 8, 10 mg/kg once every other week, Day 22, in the clinic, on captopril 12.5 qd",130/80
same,blood pressure,"[1]; Subject 8, 10 mg/kg once every other week, Days 23-28, at home, on captopril 12.5 qd",150/90
same,blood pressure,"[1]; Subject 9, 10 mg/kg once every other week, Day 7, on nifedipine 20 mg qd",130/80
same,blood pressure,"[1]; Subject 9, 10 mg/kg once every other week, Day 74, on nifedipine 20 mg qd, then discontinued",115/75
